{"source": "the DeepSol protein solubility set"}
{"experiment": "soluble on expression in E. coli; label from the status in PepcDB or PDB records"}
{"sequence": "MITNDHDRRKQISVRGIAQVENVSNIKKAFNRHLHFSIIKDRNVATDRDYYFALANTVRDHLVSRWIRTQQHYYDKDPKRVYYLSLEFYMGRTLSNTMMNLGIQATVDEALYQLGLDIEELQEIEEDAGLGNGGLGRLAACFLDSMATLGIPAYGYGLRYEYGIFKQLIRDGWQIEEPDDWLRFGNPWEKARPEYMLPVNFYGKVVKEDGKSKWIDTQVVFAMPYDTPVPGYKNNIVNTLRLWSAKAENHFHLKFFNDGDYVQAVMDRNLSENITRVLYPNDNMFLGKELRLKQQYFLVAATLQDIIRRFKSSIYGNREAVRVNFETFPDKVAIQLNDTHPSIGIPELIRLLIDVEGLTWDQAWDICIKTYAYTNHTLLPEALERWPVSLMQNLLPRHLEIIYEINQKFMNTISQRFPGDFDRMRRMSIVEEADQFGEKRINMAHLCIVASHAINGVAALHSDLLKSSTFRDFYEFYPDRFQNKTNGITPRRWLLLSNPSLADLIVEKIGESWITNLDELQKLKEYANDAGFLDSIRRVKLENKQQVAQYLSDEYNVNVNAASLFDVHVKRIHEYKRQLLNILHVIALYNRIKENPNIDMVKRTVLYGGKAAPGYHMAKQIIRLITAVAEQVNNDAIVGDRLKVIFLENYRVSMAEKIIPASDLSEQISTAGTEASGTGNMKFMLNGALTIGTLDGANVEMAEEMGDENIFIFGMNVEEVEALTKRGYSSQEFIDKSPMLKQIIEQIEGGMFTPEDPDQLKDLSNMLRYHDRFMVCADFDAFIEAQDKVSATFRDQEKWSRMALYNIASTGKFSTDRTITEYAREIWGIDQFESSLPAPYENEKSE", "soluble on expression in E. coli": "not soluble"}
{"sequence": "MHHHHHHSSGRENLYFQGPKCIQCGQYLDDPDLKYGQHPPDAVDEPQMLTNEKLSIFDANESGFESYEALPQHKLTCFSVYCKHGHLCPIDTGLIEKNIELFFSGSAKPIYDDDPSLEGGVNGKNLGPINEWWITGFDGGEKALIGFSTSFAEYILMDPSPEYAPIFGLMQEKIYISKIVVEFLQSNSDSTYEDLINKIETTVPPSGLNLNRFTEDSLLRHAQFVVEQVESYDEAGDSDEQPIFLTPCMRDLIKLAGVTLGQRRAQAR", "soluble on expression in E. coli": "soluble"}
{"sequence": "MNAWEVNFDGLVGLTHHYAGLSFGNEASTRHRFQVSNPRLAAKQGLLKMKALADAGFPQAVIPPHERPFIPVLRQLGFSGSDEQVLEKVARQAPHWLSSVSSASPMWVANAATIAPSADTLDGKVHLTVANLNNKFHRSLEAPVTESLLKAIFNDEEKFSVHSALPQVALLGDEGAANHNRLGGHYGEPGMQLFVYGREEGNDTRPSRYPARQTREASEAVARLNQVNPQQVIFAQQNPDVIDQGVFHNDVIAVSNRQVLFCHQQAFARQSQLLANLRARVNGFMAIEVPATQVSVSDTVSTYLFNSQLLSRDDGSMMLVLPQECREHAGVWGYLNELLAADNPISELKVFDLRESMANGGGPACLRLRVVLTEEERRAVNPAVMMNDTLFNALNDWVDRYYRDRLTAADLADPQLLREGREALDVLSQLLNLGSVYPFQREGGGNG", "soluble on expression in E. coli": "soluble"}
{"sequence": "MQGVQEQIEELQTKLAFQELTVEELNQEVIKLNQLVAHQQHQIQLLIGKLQAIEPSNMATQAEETPPPHY", "soluble on expression in E. coli": "soluble"}
{"sequence": "MENRESAQRPHERLDAWRDSMELVEMIYRLTEVFPDQERYGLTAQLRRAAVSIPSNIAEGAARRSTPDYSRFLSIARGSLSELDTQVQIAARLGYSRSEDDQSVRRQVDLVFAKLTALMNALRRRGAA", "soluble on expression in E. coli": "soluble"}
{"sequence": "MGSDKIHHHHHHMDAANVDLKAFTEDFYHRLCGAHLESVKETLVYLKHETDVWVEVTTLLIPGENDSPEEIDAQTKWMMAALGPDVPLHFSAFHPDWKMKDKTNTPPETLTRARDIAIRNGLRYVYTGNVHDPAGGGTYCSGCGALLIGRDWYELSTWALTPEGHCRECGTPLPGRFEAAPGTWGRKRQPVRFQR", "soluble on expression in E. coli": "not soluble"}
{"sequence": "MSLTIAVYGLGKMGLPLAAVFADHGANVIGVDINERVVEMVNKGENHVKEEPGLDELVRRNVEEGRLRATTDGVWAAKSADVMIILVPTLADDRGNLKLEPVYDVANKIAKGLEKGDIVITEATMPPGTTESLIPILEKSGLKLGEFGLAHAPERTMTGTAIRDITGQYPKIVGASDERTLEAVIGLYETINRKGVIPMSSIKAAEAVKVFEGVYRDVNIALANELALWCEEHGLDALEIFNAANTQPYCHLHMPGAGVGGHCIPVYPWFVISLAKKTNPRLIKTAREINDSMPHHIVELTIRGLNEVGKPLKGSNVLVLGLTFRGGVREFTKSPAIDVIKELKEWGARVFTYDPLCNEEDAKRFGAEWKEDFKDVDAIVIVTDHKEFKDLNLEEIAKQVRNRVIVDGRNILDPRKAEKLGFVYLRVGRVEGHHHHHH", "soluble on expression in E. coli": "soluble"}
{"sequence": "MGSDKIHHHHHHAATYQVKKLMGFRHPTSYYAKSAKSGYLWNKSHTKRLHNLKNYPKTTWYATAKYSMKSVRNSGTYLKVTNGTGKAKGYVWTGYLKKGVNPANPNGTLTDPFGAAMSTYNVDDNLNKQLLNLFPGTIPDEPLQLAADFIFANAGANPDDYTSVIEELVGAENEPSVFRLSSDKRIQKNQNFLSFQRNSLKEELVTKHKKFTSFKGYRIGAYAFPKHDKRYGESMILLLPSN", "soluble on expression in E. coli": "not soluble"}
{"sequence": "MSGLKPVKPEGVQSEFSVRVAKRSDDIRYSVMMFNGMDKVDTSKWTIDSGVTMEREDNQRVILSTQTVQEYGEGSEYGKAAREEARRKKYGRQSKKYRLDNQPWKMAFTEPEGRQRQMRGIREGGANEHADYWVFLKPNQSSEFKAYKVDEWHKFLPAITHKTLDIDQAEEQFSQRYKVMNQFALKAAIQNQLSATDESEMTEQQKRLLKIKDEASSDDSDGDDEGEGGDDGKKAKNKKKKKKNAKPAKEKRQRVEDKDDVAKYESSDGEDEGREYDYISDSGTDSDREQVPSDEKIEKQLVGVAEEEGARESDSSESEDDLTKKLMKPYGDKKKGNDIEERDSSGTDSDVSDTEKLDSVVFMKANKDGEGGSGGTGKKRPPTEDSDLKMDNLGPSDAKKAKPAVKFEEGLNEETVRRYLRRKPHTTKELLHKMNGKCGNMSKSEMVTQLASILKAIEPNQSRQLKGKKEVLFFSLVNTIA", "soluble on expression in E. coli": "not soluble"}
{"sequence": "MSLGTFPAGVSADSVFVGLTIPLTGVFSGDGGDLKLGYELAIAQINAGSDIAQKWGLKGKGVLGRQIRHKVSDTEGKPNLDVQSATQFIQRDKAIMVSGSVSSSSAIALEELGSREKVLYMVGIAGSNDITGKNCQRYGFRSQQNAYMAAKGLAPVVAKALGKNIKMAFLVPDYTYGHSVYDSFSKFATEQGWKQVAKEVVPLGTTDYSSALLNIANSGADVFVNIAFGADSVASTKQAEQFGVLKRMKLVVPNLSSFQDKELGAELMQGVYGSCDFWFGLQDKFPLAKAFVDSFVAQNNYHPRWGAHIGYMQTYLWAMSVERANTFNPVDVIKVMENSKAQPYVTTIGNVYFRAEDHQMVRPIPILRGKKPSEMKHKEDFYDIIDLVDGEAVMNPPDLFGCKLGPYTEGHHHHHH", "soluble on expression in E. coli": "soluble"}
{"sequence": "MKFLHTADWHIGKKLHGFDLLAEQREAFEQILAIAKEEQVDAVVIAGDLYDRSVPAVEAVEIFNEMMIQMNLKEHFPVLAISGNHDSSTRLETGGPWFNQTQFHLNTRLEQAFQPIEIDNTQFYLLPYFEPIAARLYFEDETIRTIQAAMEKVVAKMQESFLPNKKQVLVSHFFVAGSEKTDSETKLTVGGLDVVPTALLEPFDYVALGHLHGKNALQAPNARYSGSPVKFSLSEMTQEKGVWLVETEAEVHFQFRALKPLRDIQQLTGSFQQLTDPAFYQEVNRENYLHVQLTDRAIIPNMMNQLRKIYPKIIGLERLNGRETSSGNQKKVVQIEQRSPEEHLHDFFNDVTGEALTEQQAQWVQEELSTLNQLERGK", "soluble on expression in E. coli": "not soluble"}
{"sequence": "MGSDKIHHHHHHMQVGDRIVVRQEEFDTIGHVLSVDPLIVRPHARGGLPSNAEPVRIDNPLMIKRLSPRTVRNADIRAIEVATAKAFPGIEHTWCGQWLLRAGDGVTERSNSAAPLGPQALFTPVPYEEIKEFYRRHNLPALILVPERIAPAIPDDGPEIIVMTHPLDNVSEIDDVHAEFLDQPDDDWLELYHFRGKALPRHALELLRTTIDGRMCFGRLKRDGKTVAITRGTITDGYLGYSAVEVAPEYRRQGLATELGAAMLAWGKAHGAHTAYLQVIESNAAGIGLYHKLGFVEHHRHKYVRVS", "soluble on expression in E. coli": "not soluble"}
{"sequence": "MSRIHTLTMPKWGLSMTEGRVDAWLKEEGAHIEKGDEVLDVETDKISSSVEAPFSGVLRRKVAREDETLAVGALLGVVVEGEASDEEIDALVQRFQAEFVPADEDAGDSGPAPRKVELDGRLLRYFDRGEGDPALLLIHGFGGDLNNWLFNHEALAAERRVIALDLPGHGESGKALVRGDLDELSGSVLALLDHLDLEQVHLAGHSMGGAVALNCARLAPQRVLSLSLIGSAGLGEEINGDYLRGFVEAANRNALKPQLVQLFSDPALVTRQMLEDMLRYKRLEGVDAALRQLLDNLFADGRQRNDLRAVANEGRQPVLAIWGSDDAIIPARHAEGLPAQVEIIPGQAHMVQMEAAEQVNRLLLDFLRQH", "soluble on expression in E. coli": "not soluble"}
{"sequence": "GPGSMRCVRSAAVLVKFGRSFDSTTRFGKELGFSHKMRDIPVLTGNPRPVAREEEWSCRYKLTDRMEDVVMDILKKEGWCEAEVQREMSEIFERKTQGCRSSLNTWTTVEEFQRTPWYRRYKPTDTCVAKYISYEVVKLLEEALIPPSLRGDPYAHLRKRHMEDNWMNDRFSEEAAKYIQREDLNKHTKGLPQYGQITRRKFLEFDRQFKESYGGKQHVNEAYSAWLQSIGKG", "soluble on expression in E. coli": "not soluble"}
{"sequence": "MQTETIHNIPYVNSNLTSFIDYLEKHYIDQKIGAVISTVNPEIAFAAIKDRDYFDVLSSSNFILPDGIGVVMMSRLTNNRLQSRIAGYDVFKELLGVANKKKKRIFLYGAKKDVIKGVVSKISSEYPNIKIAGYSDGYVQDRTLVAKQIARANPDMVFVALGYPHQEKFIHNYRHLFPKAVSIGLGGSFDVFSGNVKRAPSWMIRLNLEWFYRLILNPWRWKRMLSIPKYALTVLKEEKNKKTFYPKPEKDHTKQI", "soluble on expression in E. coli": "not soluble"}
{"sequence": "MLRISELKLPLGHPPDAMEPAILARLGLSATDLVSFAVARRANDARKKSAIQMVYSVDVVLRDEAAVLRRFEGDHHLRVTPDTGYHFVAKAPEGFDGPRPVVIGAGPCGLFAGLILAQMGLKPIIVDRGKVVRERTKDTWGLWRRSELNPESNVQFGEGGAGTFSDGKLYSQIKDPRFLGRKVLTEFVKAGAPEEILTEAHPHIGTFRLVHMVENMRALIESLGGEYRWQHRVEDFDIEVGEDGVRRVTGLHIAGQGHLPARHVVMALGHSSRDTFQVLYDRGVHIEAKPFSIGVRIEHPQSWIDRARFGDCAGHKDLGAAAYAISHHAKNGRTVYSFCMCPGGTVVAATSEPGRVVTNGMSQYSRNERNANSGFVVDIDPERDYPGHPLAGVDFQRKWESLAFQAGGGTYQAPGQLVGDFLAGRPSTVFGAVTPSYKPGVHLTDLAQCLPDFAIEAMREALPIFGRQIPGYDHPDVVLTGVETRTSSPVRITRGKDFQSLNTAGLYPAGEGAGYAGGILSAAVDGIKVAEAVAKQYVAEGLISACLEHHHHHH", "soluble on expression in E. coli": "soluble"}
{"sequence": "MGSDKIHHHHHHMAQKNNNVIPMTFDDAFYRKMAKQKFKQREYKRAAEYFEKVLELSPDDLEIQIDYAQCLVQLGIAKKAEHLFYDNIIYNRHLEDSFYELSQLNIEVNEPNKAFLFGINYVIVSDDQDYRDELDQMFDVKYQSEEQIELEAQLFVVQILFQYLFSQGRLKDAKNYVLHQPQEVQDHRVVRNLLAMCYLYLGEYDTAKALYEALLQEDSTDIYALCHYTLLLYNTKENEQYQKYLKILNKVVPMNDDESFKLGIVLSYLKQYRASQQLLYPLYKKGKFLSIQMYNALAYNYYYLGEEDESHYYWDKLKQISKVEIGHAPWVIENSKEVFDQHILPLLQSDDSHYRLYGIFLLDQLNGKEIVMTESIWQVLENLNNYEKLYLTYLVQGLTLNKLDFIHRGLLTLYQNELFVSENDLMVAWINQGELIIAEKVDLTDVEPYIGAFIYLYFKNQPRNVTKKQITTWLGITQYKLNKMIEFLLSI", "soluble on expression in E. coli": "not soluble"}
{"sequence": "MGHHHHHHSHKHPFIVELAYAFQTGGKLYLILECLSGGELFTHLEREGIFLEDTACFYLAEITLALGHLHSQGIIYRDLKPENIMLSSQGHIKLTDFGLCKESIHEGAVTHTFCGTIEYMAPEILVRSGHNRAVDWWSLGALMYDMLTGSPPFTAENRKKTMDKIIRGKLALPPYLTPDARDLVKKFLKRNP", "soluble on expression in E. coli": "not soluble"}
